Source: patent US20230407373A1 (priority 2020, published 2023)
Like-named read-outs stand apart in the source and are kept apart here.

Key:
Format in all cases: binding
[1] = test system: SARS-CoV-2 gRNA; conditions: […]; LC-MS/MS; Probe I sample (first 199 lines of Table 2)
[2] = test system: SARS-CoV-2 gRNA and sgRNAs; conditions: for target (unweighted spectral count in RNP capture): Probe II capture, LC-MS/MS LFQ; for background (unweighted spectral count in control): no-probe control pull-down, used as background for Probe II
[3] = test system: gRNA of HCoV-OC43; conditions: for target (spectral count, OC43 Probe I RNP capture) / background (spectral count, no-probe control): type n_48_v: 48 hours post-infection; for target (spectral count, OC43 Probe I RNP capture): infected cells, unweighted spectral count; for background (spectral count, no-probe control): no-probe control on infected cells; for target (spectral count) / background (spectral count): type g_36_m, 36 hpi, Probe I; for target (spectral count): HCoV-OC43-infected HCT-8 cells; for background (spectral count): uninfected-probe control
[4] = test system: HCoV-OC43 gRNA and sgRNA; conditions: for target (unweighted spectral count, OC43 Probe II capture) / target (unweighted spectral count): tested against no-probe control; for target (unweighted spectral count, OC43 Probe II capture): FDR<10%; for target (unweighted spectral count, OC43 Probe II) / background (unweighted spectral count, no-probe control): type n_48_v, 48 hpi; for target (unweighted spectral count, OC43 Probe II): OC43 Probe II capture on infected cells; for background (unweighted spectral count, no-probe control): no-probe control on infected cells; for target (unweighted spectral count): OC43 Probe II, infected cells

B1: RTCB (protein, UniProt Q9Y3I0 1-505, looked up)
RNA-splicing ligase RtcB …: MSRSYNDELQFLEKINKNCWRIKKGFVPNMQVEGVFYVNDALEKLMFEELRNACRGGGVGGFLPAMKQIGNVAALPGIVHRSIGLPDVHSGYGFAIGNMAAFDMNDPEAVVSPGGVGFDINCGVRLLRTNLDESDVQPVKEQLAQAMFDHIPVGVGSKGVIPMNAKDLEEALEMGVDWSLREGYAWAEDKEHCEEYGRMLQADPNKVSARAKKRGLPQLGTLGAGNHYAEIQVVDEIFNEYAAKKMGIDHKGQVCVMIHSGSRGLGHQVATDALVAMEKAMKRDKIIVNDRQLACARIASPEGQDYLKGMAAAGNYAWVNRSSMTFLTRQAFAKVFNTTPDDLDLHVIYDVSHNIAKVEQHVVDGKERTLLVHRKGSTRAFPPHHPLIAVDYQLTGQPVLIGGTMGTCSYVLTGTEQGMTETFGTTCHGAGRALSRAKSRRNLDFQDVLDKLADMGIAIRVASPKLVMEEAPESYKNVTDVVNTCHDAGISKKAIKLRPIAVIKG
[1]
  target (unweighted spectral count of the protein in the RNP capture): 6
[2]; […]
  target (unweighted spectral count in RNP capture): 14
[2]
  background (unweighted spectral count in control): 1
[3]
  target (spectral count, OC43 Probe I RNP capture): 7
  background (spectral count, no-probe control): 1
[4]; 24 hpi, type n_24_v
  target (unweighted spectral count, OC43 Probe II capture): 4
[4]; 36 hpi, type n_36_v
  target (unweighted spectral count, OC43 Probe II capture): 6
[4]
  target (unweighted spectral count, OC43 Probe II): 7
  background (unweighted spectral count, no-probe control): 1

B2: HNRNPA1 (protein, UniProt P09651 1-372, looked up)
Heterogeneous nuclear …: MSKSESPKEPEQLRKLFIGGLSFETTDESLRSHFEQWGTLTDCVVMRDPNTKRSRGFGFVTYATVEEVDAAMNARPHKVDGRVVEPKRAVSREDSQRPGAHLTVKKIFVGGIKEDTEEHHLRDYFEQYGKIEVIEIMTDRGSGKKRGFAFVTFDDHDSVDKIVIQKYHTVNGHNCEVRKALSKQEMASASSSQRGRSGSGNFGGGRGGGFGGNDNFGRGGNFSGRGGFGGSRGGGGYGGSGDGYNGFGNDGGYGGGGPGYSGGSRGYGSGGQGYGNQGSGYGGSGSYDSYNNGGGGGFGGGSGSNFGGGGSYNDFGNYNNQSSNFGPMKGGNFGGRSSGPYGGGGQYFAKPRNQGGYGGSSSSSSYGSGRRF
[1]
  target (unweighted spectral count of the protein in the RNP capture): 97
[2]; […]
  target (unweighted spectral count in RNP capture): 74
[3]
  target (spectral count, OC43 Probe I RNP capture): 82
  background (spectral count, no-probe control): 7
[4]; 36 hpi, type n_36_v
  target (unweighted spectral count, OC43 Probe II capture): 39
[4]; 12 hpi (type n_12_v)
  target (unweighted spectral count): 24
[4]; 24 hpi (type n_24_v)
  target (unweighted spectral count): 31
[4]
  target (unweighted spectral count, OC43 Probe II): 53
  background (unweighted spectral count, no-probe control): 7

B3: HNRNPUL2: host protein, UniProt Q1KMD3 (protein, UniProt Q1KMD3 1-747, looked up)
Heterogeneous nuclear …: MEVKRLKVTELRSELQRRGLDSRGLKVDLAQRLQEALDAEMLEDEAGGGGAGPGGACKAEPRPVAASGGGPGGDEEEDEEEEEEDEEALLEDEDEEPPPAQALGQAAQPPPEPPEAAAMEAAAEPDASEKPAEATAGSGGVNGGEEQGLGKREEDEPEERSGDETPGSEVPGDKAAEEQGDDQDSEKSKPAGSDGERRGVKRQRDEKDEHGRAYYEFREEAYHSRSKSPLPPEEEAKDEEEDQTLVNLDTYTSDLHFQVSKDRYGGQPLFSEKFPTLWSGARSTYGVTKGKVCFEAKVTQNLPMKEGCTEVSLLRVGWSVDFSRPQLGEDEFSYGFDGRGLKAENGQFEEFGQTFGENDVIGCFANFETEEVELSFSKNGEDLGVAFWISKDSLADRALLPHVLCKNCVVELNFGQKEEPFFPPPEEFVFIHAVPVEERVRTAVPPKTIEECEVILMVGLPGSGKTQWALKYAKENPEKRYNVLGAETVLNQMRMKGLEEPEMDPKSRDLLVQQASQCLSKLVQIASRTKRNFILDQCNVYNSGQRRKLLLFKTFSRKVVVVVPNEEDWKKRLELRKEVEGDDVPESIMLEMKANFSLPEKCDYMDEVTYGELEKEEAQPIVTKYKEEARKLLPPSEKRTNRRNNRNKRNRQNRSRGQGYVGGQRRGYDNRAYGQQYWGQPGNRGGYRNFYDRYRGDYDRFYGRDYEYNRYRDYYRQYNRDWQSYYYHHPQDRDRYYRNYYGYQGYR
[1]
  target (unweighted spectral count of the protein in the RNP capture): 6
[2]; […], LC-MS/MS label-free quantification, probe pool not given
  target (unweighted spectral count of the protein in the RNP capture experiment): 5
[2]; protein background of the control (e.g. no-probe) experiment, […]
  back-ground (unweighted spectral count of the protein in the control experiment): 1
[3]
  target (spectral count): 24
  background (spectral count): 3
  target (spectral count, OC43 Probe I RNP capture): 33
  background (spectral count, no-probe control): 2
[4]; 36 hpi, type n_36_v
  target (unweighted spectral count, OC43 Probe II capture): 14
[4]; 12 hpi (type n_12_v)
  target (unweighted spectral count): 6
[4]; 24 hpi (type n_24_v)
  target (unweighted spectral count): 11
[4]
  target (unweighted spectral count, OC43 Probe II): 25
  background (unweighted spectral count, no-probe control): 2
[4]; type s_36_m, HCoV-OC43-infected HCT-8 cells, 36 hpi, Probe II
  target (spectral count): 14
[4]; type s_36_m, uninfected-probe control, 36 hpi, Probe II
  background (spectral count): 1

B4: PUM1: host protein, UniProt Q14671 (protein, UniProt Q14671 2-1186, looked up)
Pumilio homolog 1: SVACVLKRKAVLWQDSFSPHLKHHPQEPANPNMPVVLTSGTGSQAQPQPAANQALAAGTHSSPVPGSIGVAGRSQDDAMVDYFFQRQHGEQLGGGGSGGGGYNNSKHRWPTGDNIHAEHQVRSMDELNHDFQALALEGRAMGEQLLPGKKFWETDESSKDGPKGIFLGDQWRDSAWGTSDHSVSQPIMVQRRPGQSFHVNSEVNSVLSPRSESGGLGVSMVEYVLSSSPGDSCLRKGGFGPRDADSDENDKGEKKNKGTFDGDKLGDLKEEGDVMDKTNGLPVQNGIDADVKDFSRTPGNCQNSANEVDLLGPNQNGSEGLAQLTSTNGAKPVEDFSNMESQSVPLDPMEHVGMEPLQFDYSGTQVPVDSAAATVGLFDYNSQQQLFQRPNALAVQQLTAAQQQQYALAAAHQPHIGLAPAAFVPNPYIISAAPPGTDPYTAGLAAAATLGPAVVPHQYYGVTPWGVYPASLFQQQAAAAAAATNSANQQTTPQAQQGQQQVLRGGASQRPLTPNQNQQGQQTDPLVAAAAVNSALAFGQGLAAGMPGYPVLAPAAYYDQTGALVVNAGARNGLGAPVRLVAPAPVIISSSAAQAAVAAAAASANGAAGGLAGTTNGPFRPLGTQQPQPQPQQQPNNNLASSSFYGNNSLNSNSQSSSLFSQGSAQPANTSLGFGSSSSLGATLGSALGGFGTAVANSNTGSGSRRDSLTGSSDLYKRTSSSLTPIGHSFYNGLSFSSSPGPVGMPLPSQGPGHSQTPPPSLSSHGSSSSLNLGGLTNGSGRYISAAPGAEAKYRSASSASSLFSPSSTLFSSSRLRYGMSDVMPSGRSRLLEDFRNNRYPNLQLREIAGHIMEFSQDQHGSRFIQLKLERATPAERQLVFNEILQAAYQLMVDVFGNYVIQKFFEFGSLEQKLALAERIRGHVLSLALQMYGCRVIQKALEFIPSDQQNEMVRELDGHVLKCVKDQNGNHVVQKCIECVQPQSLQFIIDAFKGQVFALSTHPYGCRVIQRILEHCLPDQTLPILEELHQHTEQLVQDQYGNYVIQHVLEHGRPEDKSKIVAEIRGNVLVLSQHKFASNVVEKCVTHASRTERAVLIDEVCTMNDGPHSALYTMMKDQYANYVVQKMIDVAEPGQRKIVMHKIRPHIATLRKYTYGKHILAKLEKYYMKNGVDLGPICGPPNGII
[1]
  target (unweighted spectral count of the protein in the RNP capture): 6
[2]; […]
  target (unweighted spectral count in RNP capture): 20
[2]
  background (unweighted spectral count in control): 1
[3]
  target (spectral count): 11
  background (spectral count): 1
  target (spectral count, OC43 Probe I RNP capture): 6
  background (spectral count, no-probe control): 1
[4]; 36 hpi, type n_36_v
  target (unweighted spectral count, OC43 Probe II capture): 6
[4]
  target (unweighted spectral count, OC43 Probe II): 6
  background (unweighted spectral count, no-probe control): 1
